In article PMC3327287 one finds percent of NEM-S1 left in the supernatant (not bound) data, which are given here for one substance.

For assay [1], the target named is F-actin (actin purified from chicken breast muscle) (chicken) (UniProt P68139). As to the kind of experiment: co-sedimentation.
Assay [2] has the same target. As to the kind of experiment: co-sedimentation. This is another data set of the same source.

Read-outs that look alike come from different tables or passages of the source.

In the case of “N-ethylmaleimide (NEM) modified skeletal muscle myosin subfragment 1 (S1) (domain or fragment)”, the percent of NEM-S1 left in the supernatant (not bound) in assay [1] and in assay [2] was 20% each time.
